One assay deals with integrin αvβ3 (UniProt P06756 31-1048; P05106 27-788). Description: cell-based or functional assay.
The target in assay [1] is T1, Tie1 receptor (full length receptor construct) (UniProt P35590 22-1138, limits assumed).
T1 construct: whole, on cells; Full length receptor expressed in 293 cells and assayed from RIPA lysate, not on intact cells
The assay can be described thus: co-immunoprecipitation from co-transfected 293 cells: anti-Tie1 IP, anti-gD immunoblot.

For assay [2], the target named is T2, Tie2 receptor (full length receptor construct) (UniProt Q02763 23-1124, limits assumed).
T2 construct: whole, on cells; Full length receptor expressed in 293 cells and assayed from RIPA lysate, not on intact cells
T2 sequence (Q02763 23-1124 limits assumed): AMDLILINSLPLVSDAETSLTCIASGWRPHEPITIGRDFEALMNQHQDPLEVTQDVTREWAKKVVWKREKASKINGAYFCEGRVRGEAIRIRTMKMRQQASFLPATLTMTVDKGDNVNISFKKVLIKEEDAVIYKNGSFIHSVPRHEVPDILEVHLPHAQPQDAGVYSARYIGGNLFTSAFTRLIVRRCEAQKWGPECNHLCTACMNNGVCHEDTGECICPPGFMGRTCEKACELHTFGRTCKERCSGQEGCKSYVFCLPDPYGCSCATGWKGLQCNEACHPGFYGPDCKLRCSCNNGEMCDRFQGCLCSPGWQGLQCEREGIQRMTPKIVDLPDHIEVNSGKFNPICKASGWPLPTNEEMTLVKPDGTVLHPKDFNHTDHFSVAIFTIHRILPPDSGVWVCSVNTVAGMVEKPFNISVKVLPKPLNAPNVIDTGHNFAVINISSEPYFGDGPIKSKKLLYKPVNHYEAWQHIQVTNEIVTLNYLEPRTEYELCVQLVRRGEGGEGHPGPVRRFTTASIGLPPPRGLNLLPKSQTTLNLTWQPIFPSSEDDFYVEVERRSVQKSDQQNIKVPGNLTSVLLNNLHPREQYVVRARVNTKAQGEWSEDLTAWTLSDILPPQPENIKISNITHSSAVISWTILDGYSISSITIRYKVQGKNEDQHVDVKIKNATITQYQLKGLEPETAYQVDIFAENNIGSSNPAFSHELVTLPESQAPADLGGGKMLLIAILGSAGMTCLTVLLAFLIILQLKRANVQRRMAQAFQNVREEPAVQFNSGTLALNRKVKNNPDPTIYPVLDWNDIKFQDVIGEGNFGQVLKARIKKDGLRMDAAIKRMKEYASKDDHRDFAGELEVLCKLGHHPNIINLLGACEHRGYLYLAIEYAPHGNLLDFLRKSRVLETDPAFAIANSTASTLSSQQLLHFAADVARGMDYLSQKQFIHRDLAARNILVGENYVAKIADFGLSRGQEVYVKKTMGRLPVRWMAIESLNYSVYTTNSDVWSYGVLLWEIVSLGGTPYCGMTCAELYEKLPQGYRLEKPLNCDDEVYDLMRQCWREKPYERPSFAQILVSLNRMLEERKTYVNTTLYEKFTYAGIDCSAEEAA
Description: co-immunoprecipitation from co-transfected 293 cells: anti-Tie2 IP, anti-gD immunoblot.

The results in this text go back to patent US20030215451A1 (Genentech, published 2003).

Chain of integrin αvβ3 (P06756 31-1048, chain 1 of 2): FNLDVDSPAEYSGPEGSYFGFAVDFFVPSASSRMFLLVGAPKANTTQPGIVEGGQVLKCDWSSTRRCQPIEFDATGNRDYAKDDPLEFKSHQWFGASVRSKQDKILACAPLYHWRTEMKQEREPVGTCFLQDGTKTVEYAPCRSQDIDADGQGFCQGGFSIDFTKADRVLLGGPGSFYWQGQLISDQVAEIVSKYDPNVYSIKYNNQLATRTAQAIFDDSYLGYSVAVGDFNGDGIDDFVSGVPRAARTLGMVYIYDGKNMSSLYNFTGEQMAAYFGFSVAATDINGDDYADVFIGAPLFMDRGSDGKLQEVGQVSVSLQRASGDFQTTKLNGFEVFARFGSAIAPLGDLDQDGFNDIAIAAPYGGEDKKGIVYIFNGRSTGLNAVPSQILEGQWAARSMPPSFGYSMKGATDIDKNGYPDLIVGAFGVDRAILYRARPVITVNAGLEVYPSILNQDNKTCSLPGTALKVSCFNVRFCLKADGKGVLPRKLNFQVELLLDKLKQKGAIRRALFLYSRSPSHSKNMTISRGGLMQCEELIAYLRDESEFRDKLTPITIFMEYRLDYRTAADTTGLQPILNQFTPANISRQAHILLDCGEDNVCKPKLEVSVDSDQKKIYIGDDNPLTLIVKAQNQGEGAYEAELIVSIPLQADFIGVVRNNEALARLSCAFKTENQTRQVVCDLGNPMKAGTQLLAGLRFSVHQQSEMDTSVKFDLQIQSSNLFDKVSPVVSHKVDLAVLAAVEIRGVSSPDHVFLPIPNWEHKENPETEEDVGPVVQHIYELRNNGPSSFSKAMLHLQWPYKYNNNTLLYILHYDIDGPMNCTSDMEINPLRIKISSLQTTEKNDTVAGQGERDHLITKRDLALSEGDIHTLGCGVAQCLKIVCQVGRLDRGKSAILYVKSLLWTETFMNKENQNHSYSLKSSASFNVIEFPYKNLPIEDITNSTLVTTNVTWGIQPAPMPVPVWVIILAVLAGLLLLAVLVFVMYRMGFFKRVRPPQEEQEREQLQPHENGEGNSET
Chain of integrin αvβ3 (P05106 27-788, chain 2 of 2): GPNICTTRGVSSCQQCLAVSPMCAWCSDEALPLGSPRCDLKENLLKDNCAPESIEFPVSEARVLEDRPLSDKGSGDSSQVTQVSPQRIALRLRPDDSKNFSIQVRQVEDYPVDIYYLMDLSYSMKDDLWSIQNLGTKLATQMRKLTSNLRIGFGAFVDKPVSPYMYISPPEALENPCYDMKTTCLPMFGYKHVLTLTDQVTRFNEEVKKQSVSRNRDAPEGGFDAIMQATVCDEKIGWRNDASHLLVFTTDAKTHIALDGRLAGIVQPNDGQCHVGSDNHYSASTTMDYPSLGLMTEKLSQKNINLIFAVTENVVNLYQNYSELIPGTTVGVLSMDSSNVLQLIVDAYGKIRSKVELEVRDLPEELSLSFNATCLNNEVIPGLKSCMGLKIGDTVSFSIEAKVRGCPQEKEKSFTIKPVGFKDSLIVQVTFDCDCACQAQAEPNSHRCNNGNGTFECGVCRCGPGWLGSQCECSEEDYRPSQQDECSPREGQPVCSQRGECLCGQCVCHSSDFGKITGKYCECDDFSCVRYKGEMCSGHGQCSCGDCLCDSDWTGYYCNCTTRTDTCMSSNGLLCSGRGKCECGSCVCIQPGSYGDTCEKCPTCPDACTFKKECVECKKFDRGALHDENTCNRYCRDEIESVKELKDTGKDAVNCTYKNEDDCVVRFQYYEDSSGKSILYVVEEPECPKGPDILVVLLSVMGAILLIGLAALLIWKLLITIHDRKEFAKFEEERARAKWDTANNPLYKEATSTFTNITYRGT
T1 sequence (P35590 22-1138 limits assumed): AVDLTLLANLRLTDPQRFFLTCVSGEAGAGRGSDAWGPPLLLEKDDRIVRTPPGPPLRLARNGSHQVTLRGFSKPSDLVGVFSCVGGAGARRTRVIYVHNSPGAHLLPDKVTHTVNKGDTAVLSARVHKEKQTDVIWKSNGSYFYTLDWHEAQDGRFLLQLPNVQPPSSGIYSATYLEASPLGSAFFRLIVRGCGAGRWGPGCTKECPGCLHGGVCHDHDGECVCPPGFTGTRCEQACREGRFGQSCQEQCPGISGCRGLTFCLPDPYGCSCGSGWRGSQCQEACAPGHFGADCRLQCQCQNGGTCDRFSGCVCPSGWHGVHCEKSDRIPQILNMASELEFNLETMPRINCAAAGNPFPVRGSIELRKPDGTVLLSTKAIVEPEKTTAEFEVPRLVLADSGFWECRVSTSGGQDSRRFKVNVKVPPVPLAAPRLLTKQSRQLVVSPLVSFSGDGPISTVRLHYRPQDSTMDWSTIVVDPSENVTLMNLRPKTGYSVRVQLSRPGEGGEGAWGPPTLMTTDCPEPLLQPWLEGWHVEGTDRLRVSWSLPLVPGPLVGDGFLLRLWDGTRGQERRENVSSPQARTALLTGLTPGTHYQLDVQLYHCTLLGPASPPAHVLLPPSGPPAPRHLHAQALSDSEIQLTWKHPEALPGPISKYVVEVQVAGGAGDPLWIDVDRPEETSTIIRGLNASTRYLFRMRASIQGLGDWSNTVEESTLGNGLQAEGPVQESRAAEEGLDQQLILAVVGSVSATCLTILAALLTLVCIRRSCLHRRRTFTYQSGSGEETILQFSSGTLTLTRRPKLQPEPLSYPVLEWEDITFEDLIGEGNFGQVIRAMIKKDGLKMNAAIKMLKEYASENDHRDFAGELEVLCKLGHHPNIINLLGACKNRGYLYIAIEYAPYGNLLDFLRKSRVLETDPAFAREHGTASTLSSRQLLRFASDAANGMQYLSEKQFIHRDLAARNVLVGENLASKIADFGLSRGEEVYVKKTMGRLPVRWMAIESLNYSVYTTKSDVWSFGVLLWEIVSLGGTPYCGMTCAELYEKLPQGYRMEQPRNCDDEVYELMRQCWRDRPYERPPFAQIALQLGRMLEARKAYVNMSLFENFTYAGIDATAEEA

B1: recombinant human Angptl3 tagged with an amino-terminal gD epitope (ligand, not shown: small tags and cut ends)
chain: SRIDQDNSSFDSLSPEPKSRFAMLDDVKILANGLLQLGHGLKDFVHKTKGQINDIFQKLNIFDQSFYDLSLQTSEIKEEEKELRRTTYKLQVKNEEVKNMSLELNSKLESLLEEKILLQQKVKYLEEQLTNLIQNQPETPEHPEVTSLKTFVEKQDNSIKDLLQTVEDQYKQLNQQHSQIKEIENQLRRTSIQEPTEISLSSKPRAPRTTPFLQLNEIRNVKHDGIPAECTTIYNRGEHTSGMYAIRPSNSQVFHVYCDVISGSPWTLIQHRIDGSQNFNETWENYKYGFGRLDGEFWLGLEKIYSIVKQSNYVLRIELEDWKDNKHYIEYSFYLGNHETNYTLHLVAITGNVPNAIPENKDLVFSTWDHKAKGHFNCPEGYSGGWWWHDECGENNLNGKYNKPRAKSKPERRRGLSWKSQNGRLYSIKSTKMLIHPTDSESFE
modifications: glycosylated (PNGase-F sensitive)
notes: Purified from baculovirus-infected insect cells for the adhesion and migration assays; Expressed in transiently transfected 293 cells for the co-immunoprecipitation; Both are treated here as one molecule; also called hAngptl3; gD-tagged Angptl3
Consider B1, for which the “migration of HMVEC (cells/microscopic field)” value with integrin αvβ3 is 2.5 fold. The binding result in assay [1] and in assay [2] was “no binding” throughout.
